Results on five molecules are retold here after PMC10287724, “Structural basis of the interaction between BCL9-Pygo and LDB-SSBP complexes in assembling the Wnt enhanceosome” (Nature Communications, 2023).

Numbering of substitutions follows the chain as printed.

Data set [1] concerns the target GST-hPygo2(58-84) (human) (UniProt Q9BRQ0). Put plainly: BLI; GST-Pygo2(58-84) wt or mutant loaded on GST biosensors, quenched with free GST; wt or mutant MBP-LDB1-SSBP2 in solution (0.03-30 uM); Octet RED96, 30 °C; KD from steady-state analysis.
Data set [2] deals with the molecule itself. As to the kind of experiment: crystal structure; Pygo2(58–84) peptide incubated with LDB1-SSBP2 (co-expressed, co-purified) at 5:1; hanging drop, 100 mM Li2SO4, 100 mM sodium citrate pH 5.6, 1% PEG400, 10 mM DTT, microseeding; 2.45 Å.
Data set [3] has as its target hBCL9ΔHD3-Pygo2 complex, Avi-tagged, biotinylated (human, UniProt O00512 1-1426; Q9BRQ0 1-406, lacking hBCL9(461–489) fragment, biotin on the Avi tag (BirA)). As to the kind of experiment: BLI.
In data set [4] the target is T1, Avi-tagged wt BCL9-Pygo2 complex, biotinylated (human, UniProt O00512 1-1426; Q9BRQ0 1-406, biotin on the Avi tag (BirA)).
T1 construct: B-cell lymphoma 9 protein (BCL9), human, full length; Pygopus 2 (Pygo2), human, full length; also called Biotinylated BCL9-Pygo2; recombinant BCL9-Pygo; source: HEK293S GnTI- cells, co-transfected, purified (Flag beads, Superose 6 SEC), biotinylated with BirA; not shown: Avi, C-terminal, kept
T1 sequence (O00512 whole entry, chain 1 of 2): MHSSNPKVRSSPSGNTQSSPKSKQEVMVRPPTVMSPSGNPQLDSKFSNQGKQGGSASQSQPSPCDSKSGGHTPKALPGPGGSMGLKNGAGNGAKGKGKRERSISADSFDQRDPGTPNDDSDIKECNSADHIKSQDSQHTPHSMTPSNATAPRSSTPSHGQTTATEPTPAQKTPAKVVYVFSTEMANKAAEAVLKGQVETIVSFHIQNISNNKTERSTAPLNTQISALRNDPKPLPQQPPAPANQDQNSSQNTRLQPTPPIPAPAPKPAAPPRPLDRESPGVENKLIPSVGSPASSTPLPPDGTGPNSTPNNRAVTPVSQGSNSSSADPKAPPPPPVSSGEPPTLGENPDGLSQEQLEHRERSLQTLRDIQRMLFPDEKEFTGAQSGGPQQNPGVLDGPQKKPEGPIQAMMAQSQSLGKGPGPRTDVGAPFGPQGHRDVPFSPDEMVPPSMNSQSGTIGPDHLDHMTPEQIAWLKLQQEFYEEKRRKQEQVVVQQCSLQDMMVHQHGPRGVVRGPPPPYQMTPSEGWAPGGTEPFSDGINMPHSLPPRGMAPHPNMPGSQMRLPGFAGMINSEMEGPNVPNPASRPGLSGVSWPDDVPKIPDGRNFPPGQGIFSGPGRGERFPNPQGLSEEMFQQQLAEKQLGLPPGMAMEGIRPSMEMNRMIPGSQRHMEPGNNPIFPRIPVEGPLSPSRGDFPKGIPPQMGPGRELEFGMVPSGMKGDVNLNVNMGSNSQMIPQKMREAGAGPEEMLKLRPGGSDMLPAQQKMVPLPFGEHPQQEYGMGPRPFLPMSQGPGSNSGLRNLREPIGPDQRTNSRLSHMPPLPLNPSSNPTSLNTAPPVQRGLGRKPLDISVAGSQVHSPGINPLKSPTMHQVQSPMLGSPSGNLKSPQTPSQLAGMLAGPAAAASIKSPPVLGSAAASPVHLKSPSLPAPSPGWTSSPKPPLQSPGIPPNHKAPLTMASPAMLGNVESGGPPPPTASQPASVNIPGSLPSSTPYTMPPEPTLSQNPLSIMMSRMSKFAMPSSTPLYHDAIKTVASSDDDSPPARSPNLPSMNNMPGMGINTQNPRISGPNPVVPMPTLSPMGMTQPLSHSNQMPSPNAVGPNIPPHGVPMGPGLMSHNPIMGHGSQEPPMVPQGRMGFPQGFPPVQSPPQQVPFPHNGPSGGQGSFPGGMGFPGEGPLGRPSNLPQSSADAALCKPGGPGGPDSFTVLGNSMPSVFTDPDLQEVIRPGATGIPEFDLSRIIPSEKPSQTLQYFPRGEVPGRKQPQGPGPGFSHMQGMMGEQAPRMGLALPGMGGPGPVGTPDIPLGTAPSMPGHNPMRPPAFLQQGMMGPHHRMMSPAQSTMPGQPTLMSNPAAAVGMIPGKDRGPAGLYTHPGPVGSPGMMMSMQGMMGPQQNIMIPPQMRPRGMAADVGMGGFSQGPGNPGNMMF
T1 sequence (Q9BRQ0 whole entry, chain 2 of 2): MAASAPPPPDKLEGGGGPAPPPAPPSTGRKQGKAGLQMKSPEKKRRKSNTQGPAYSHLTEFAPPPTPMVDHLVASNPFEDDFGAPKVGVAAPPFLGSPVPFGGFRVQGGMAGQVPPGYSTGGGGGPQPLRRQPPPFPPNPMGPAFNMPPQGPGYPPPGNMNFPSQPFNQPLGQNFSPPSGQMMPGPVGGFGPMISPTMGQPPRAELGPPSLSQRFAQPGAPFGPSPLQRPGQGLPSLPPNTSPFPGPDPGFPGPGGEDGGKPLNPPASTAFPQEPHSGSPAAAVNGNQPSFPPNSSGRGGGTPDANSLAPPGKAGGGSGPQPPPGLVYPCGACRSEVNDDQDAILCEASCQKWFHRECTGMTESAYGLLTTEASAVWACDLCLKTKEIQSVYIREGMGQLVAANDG
As to the kind of experiment: BLI; Octet RED96; biotinylated Avi-tagged BCL9-Pygo2 (wt or deletion) on SA biosensors, full-length LDB1-SSBP2 in solution at 1000, 300, 100, 30 nM; 30 °C; 20 mM Tris-HCl pH 8.0, 100 mM NaCl, 10 mM DTT, 10 mg/ml BSA; steady-state analysis. The settings on record: both partners purified.

The target in data set [5] is T2, hBCL9ΔHD3-Pygo2 complex, Avi-tagged, biotinylated (human, UniProt O00512 1-1426; Q9BRQ0 1-406, lacking hBCL9(461–489) fragment, biotin on the Avi tag (BirA)).
T2 construct: B-cell lymphoma 9 protein (BCL9), human, full length lacking HD3 (461-489); Pygopus 2 (Pygo2), human, full length; also called hBCL9^△HD3-Pygo2; HD3-deleted BCL9; source: HEK293S GnTI- cells, co-transfected, purified (Flag beads, Superose 6 SEC), biotinylated with BirA; not shown: Avi, C-terminal, kept
Described as above. The settings on record: both partners purified.
T2 sequence (O00512 other isoform, or with tags, fused parts or gaps with the stated changes, chain 1 of 2): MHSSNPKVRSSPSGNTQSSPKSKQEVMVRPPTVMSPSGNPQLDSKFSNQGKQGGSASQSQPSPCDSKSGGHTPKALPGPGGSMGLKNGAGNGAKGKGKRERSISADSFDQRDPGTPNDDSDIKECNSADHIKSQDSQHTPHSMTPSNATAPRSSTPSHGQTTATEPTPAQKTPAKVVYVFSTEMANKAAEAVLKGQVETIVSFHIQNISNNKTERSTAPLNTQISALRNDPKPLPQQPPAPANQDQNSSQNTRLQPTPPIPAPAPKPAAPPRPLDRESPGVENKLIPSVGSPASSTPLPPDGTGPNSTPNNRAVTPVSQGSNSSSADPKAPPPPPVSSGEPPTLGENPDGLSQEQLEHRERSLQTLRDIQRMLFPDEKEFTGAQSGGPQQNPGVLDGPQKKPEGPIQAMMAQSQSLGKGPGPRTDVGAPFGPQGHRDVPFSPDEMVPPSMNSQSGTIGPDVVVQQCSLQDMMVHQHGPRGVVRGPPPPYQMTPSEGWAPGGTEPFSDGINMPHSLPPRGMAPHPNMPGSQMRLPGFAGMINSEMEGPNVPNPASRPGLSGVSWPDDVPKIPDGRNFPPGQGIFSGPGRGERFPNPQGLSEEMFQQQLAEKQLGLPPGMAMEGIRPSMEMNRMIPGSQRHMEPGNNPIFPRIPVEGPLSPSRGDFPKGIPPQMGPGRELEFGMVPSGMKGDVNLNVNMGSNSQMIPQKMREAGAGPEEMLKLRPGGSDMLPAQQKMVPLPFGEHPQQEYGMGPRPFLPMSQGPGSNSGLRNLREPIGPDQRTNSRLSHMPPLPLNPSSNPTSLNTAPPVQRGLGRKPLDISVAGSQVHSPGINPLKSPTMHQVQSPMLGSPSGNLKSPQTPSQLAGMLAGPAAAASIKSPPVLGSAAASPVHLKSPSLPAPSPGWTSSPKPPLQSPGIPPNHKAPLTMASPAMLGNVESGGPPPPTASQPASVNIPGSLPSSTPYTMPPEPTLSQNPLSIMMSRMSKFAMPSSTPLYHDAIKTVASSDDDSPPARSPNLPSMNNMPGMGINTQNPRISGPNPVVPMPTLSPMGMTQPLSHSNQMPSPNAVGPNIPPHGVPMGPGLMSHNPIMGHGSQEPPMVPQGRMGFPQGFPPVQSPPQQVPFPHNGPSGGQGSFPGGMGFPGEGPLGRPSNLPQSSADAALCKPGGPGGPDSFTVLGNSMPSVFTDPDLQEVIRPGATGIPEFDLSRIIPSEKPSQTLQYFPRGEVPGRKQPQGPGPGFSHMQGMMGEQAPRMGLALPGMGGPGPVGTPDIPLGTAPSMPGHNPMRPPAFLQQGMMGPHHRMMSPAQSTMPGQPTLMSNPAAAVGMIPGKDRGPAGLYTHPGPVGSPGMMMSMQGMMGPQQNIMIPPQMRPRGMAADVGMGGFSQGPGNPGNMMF
T2 sequence (Q9BRQ0 whole entry, stated change not applied, chain 2 of 2, the tested form may be a part): as the sequence (Q9BRQ0 whole entry, chain 2 of 2) above

Data set [6] has as its target T3, MBP-LDB1(56–285)-SSBP2(1–94) complex, SSBP2 Y72A (human, UniProt Q86U70 56-285; P81877 1-94, Y72A).
T3 sequence 1: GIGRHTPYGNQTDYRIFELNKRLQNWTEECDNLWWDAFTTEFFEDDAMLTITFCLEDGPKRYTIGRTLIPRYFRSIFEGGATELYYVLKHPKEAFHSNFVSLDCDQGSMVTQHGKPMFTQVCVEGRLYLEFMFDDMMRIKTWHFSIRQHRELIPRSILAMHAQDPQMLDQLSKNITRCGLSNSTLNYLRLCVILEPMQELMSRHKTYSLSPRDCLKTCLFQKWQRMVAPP
T3 sequence 2: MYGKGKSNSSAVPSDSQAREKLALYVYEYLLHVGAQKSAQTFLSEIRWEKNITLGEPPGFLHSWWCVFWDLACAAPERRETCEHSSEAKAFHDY
As to the kind of experiment: BLI.

For “MBP-LDB1(56-285)-SSBP2(1-94) Y72A complex (from UniProt Q86U70 56-285; P81877 1-94)”, the equilibrium dissociation constant (Kd) in data set [1] was 22 µM.

B1: human SSBP2(1–94), tag removed (domain or fragment, UniProt P81877 1-94, looked up)
chain: T3 sequence 2 with A72Y
notes: chain of the crystallised complex; not shown: His, N-terminal, cleaved
For B1, the binding result in data set [2] is recorded as “binds”.

B2: LDB1-SSBP2 complex (full-length human proteins) (complex)
chain 1: MSVGCACPGCSSKSFKLYSPKEPPNGNAFPPFHPGTMLDRDVGPTPMYPPTYLEPGIGRHTPYGNQTDYRIFELNKRLQNWTEECDNLWWDAFTTEFFEDDAMLTITFCLEDGPKRYTIGRTLIPRYFRSIFEGGATELYYVLKHPKEAFHSNFVSLDCDQGSMVTQHGKPMFTQVCVEGRLYLEFMFDDMMRIKTWHFSIRQHRELIPRSILAMHAQDPQMLDQLSKNITRCGLSNSTLNYLRLCVILEPMQELMSRHKTYSLSPRDCLKTCLFQKWQRMVAPPAEPTRQQPSKRRKRKMSGGSTMSSGGGNTNNSNSKKKSPASTFALSSQVPDVMVVGEPTLMGGEFGDEDERLITRLENTQFDAANGIDDEDSFNNSPALGANSPWNSKPPSSQESKSENPTSQASQ
chain 2: MYGKGKSNSSAVPSDSQAREKLALYVYEYLLHVGAQKSAQTFLSEIRWEKNITLGEPPGFLHSWWCVFWDLYCAAPERRETCEHSSEAKAFHDYSAAAAPSPVLGNIPPGDGMPVGPVPPGFFQPFMSPRYPGGPRPPLRIPNQALGGVPGSQPLLPSGMDPTRQQGHPNMGGPMQRMTPPRGMVPLGPQNYGGAMRPPLNALGGPGMPGMNMGPGGGRPWPNPTNANSIPYSSASPGNYVGPPGGGGPPGTPIMPSPADSTNSGDNMYTLMNAVPPGPNRPNFPMGPGSDGPMGGLGGMESHHMNGSLGSGDMDSISKNSPNNMSLSNQPGTPRDDGEMGGNFLNPFQSESYSPSMTMSV
notes: the discussion speaks of a 2:4 (LDB1:SSBP2) stoichiometry of the LDB1-SSBP2 core complex; not measured for the full-length complex; also called ChiLS; full-length LDB1-SSBP2 complex; source: HEK293S GnTI- cells, co-transfected, purified (Flag beads, Superose 6 SEC)
In the case of B2, the results for the Kd in data set [3] and in data set [4] were 0.039 µM and 0.032 µM, respectively. Also, the binding result in data set [5] is on record as “binds”.

B3: human LDB1(56–285), tags removed (domain or fragment, UniProt Q86U70 56-285, looked up)
chain: T3 sequence 1
notes: chain of the crystallised complex; source: E. coli BL21 (DE3), co-expressed with SSBP2(1–94), purified (Ni-NTA, TEV cleavage, HiTrap Q, Superdex 200); not shown: His, N-terminal, cleaved; MBP, N-terminal, cleaved
As to B3, in data set [2], the binding result was “binds”.

On to LTEFAPPPTPMVDHLVASNPFEDDFGA (domain or fragment) [GST-Pygo2(58–84)], for which the Kd in data set [6] is 22 µM.
